Laboratory results as given in patent publication US20230128344A1 (UNIVERSITY OF SOUTHERN CALIFORNIA, published 2023).

Target: T1, hCLL-1 on U937 human AML cells (human, UniProt Q5QGZ9 1-265)
T1 sequence (looked up): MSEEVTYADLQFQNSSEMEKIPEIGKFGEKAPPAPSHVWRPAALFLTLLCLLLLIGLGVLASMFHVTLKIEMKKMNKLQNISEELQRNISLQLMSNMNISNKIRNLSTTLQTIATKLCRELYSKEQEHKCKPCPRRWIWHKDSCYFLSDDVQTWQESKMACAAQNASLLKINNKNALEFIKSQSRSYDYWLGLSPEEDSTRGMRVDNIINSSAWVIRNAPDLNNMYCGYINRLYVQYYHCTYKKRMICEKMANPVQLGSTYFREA
Test: cell-based or functional assay

B1: DAR2-ARC-ADC (DAR2-ARC-IgG conjugated with 2'-Cl-araNAD+-MMAF) (antibody)
heavy: not shown
light: ENVLTQSPAIMSASPGEKVTMTCRASSNVISSYVHWYQQRSGASPKLWIYSTSNLASGVPARFSGSGSGTSYSLTISSVEAEDAATYYCQQYSGYPLTFGAGTKLELKRAAAAPSVFIFPPSDEQLKSGTASVVCLLNNFYPREAKVQWKVDNALQSGNSQESVTEQDSKDSTYSLSSTLTLSKADYEKHKVYACEVTHQGLSSPVTKSFNRGEC
modifications: 2'-Cl-arabinose-ADP-MMAF on Glu226 of the CD38 domain (CD38 numbering)
In the case of B1, the “in vitro cytotoxicity EC50 on U937 (CLL-1+) cells (MTT, 72 hours)” value is reported as 0.9 nM.
